Experiment [1] has as its target purified IgM antibody (38C13). Kind of experiment: antibody microarray, printed S1C5, goat anti-mouse IgM HRP chemiluminescence.
The target of experiment [2] is 38C13 IgM in 38C13 cell extract. Kind of experiment: antibody microarray, printed S1C5, cell extract, goat anti-mouse IgM HRP chemiluminescence.

In the case of “S1C5 anti-idiotype monoclonal antibody (anti-IgM antibody)”, in experiment [1], the lowest IgM concentration giving signal was 0.1 µg/mL and the lowest spotted antibody concentration giving signal came out at 25 µg/mL. In experiment [2], this substance displayed a highest extract dilution giving signal (fold dilution (1:x)) of 2000 and a lowest printed antibody concentration giving signal of 50 µg/mL.

The values are drawn from patent US20060018911A1.
